Measurements as given in patent publication US20160347844A1 (Dana-Farber, published 2016).

T1: recombinant mRGMb-HIS (R&D) (mouse, UniProt Q7TQ33 49-415, limits assumed)
T1 construct: Bought (R&D); also called monomeric mRGMb-HIS; not shown: HIS tag
T1 sequence: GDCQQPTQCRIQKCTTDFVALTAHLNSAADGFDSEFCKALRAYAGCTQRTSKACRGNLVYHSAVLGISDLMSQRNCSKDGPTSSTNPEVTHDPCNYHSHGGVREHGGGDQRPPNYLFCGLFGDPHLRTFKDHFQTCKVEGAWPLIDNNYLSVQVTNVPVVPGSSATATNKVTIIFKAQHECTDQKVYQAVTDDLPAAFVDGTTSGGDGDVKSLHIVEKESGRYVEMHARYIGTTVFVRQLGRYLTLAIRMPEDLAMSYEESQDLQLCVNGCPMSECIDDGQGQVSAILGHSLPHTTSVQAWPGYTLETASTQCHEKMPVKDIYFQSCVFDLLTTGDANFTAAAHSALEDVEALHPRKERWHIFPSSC

T2: mouse RGMb on mRGMb transfected 300 cells (mouse, UniProt Q7TQ33 49-415)
T2 construct: also called 300-mRGMb cells; DRAGON
T2 sequence: T1 sequence

B1: recombinant mouse BMP-4 (R&D) (ligand)
chain: SPKHHPQRSRKKNKNCRRHSLYVDFSDVGWNDWIVAPPGYQAFYCHGDCPFPLADHLNSTNHAIVQTLVNSVNSSIPKACCVPTELSAISMLYLDEYDKVVLKNYQEMVVEGCGCR
notes: Bought; also called mBMP-4
B2: mouse PD-L2 on mPD-L2 transfected 300 cells (ligand, UniProt Q9WUL5 20-247, looked up)
chain: LFTVTAPKEVYTVDVGSSVSLECDFDRRECTELEGIRASLQKVENDTSLQSERATLLEEQLPLGKALFHIPSVQVRDSGQYRCLVICGAAWDYKYLTVKVKASYMRIDTRILEVPGTGEVQLTCQARGYPLAEVSWQNVSVPANTSHIRTPEGLYQVTSVLRLKPQPSRNFSCMFWNAHMKELTSAIIDPLSRMEPKVPRTWPLHVFIPACTIALIFLAIVIIQRKRI
notes: whole, on cells; also called 300-mPD-L2
B3: recombinant mouse BMP-2 (GIBCO) (ligand)
chain: QAKHKQRKRLKSSCKRHPLYVDFSDVGWNDWIVAPPGYHAFYCHGECPFPLADHLNSTNHAIVQTLVNSVNSKIPKACCVPTELSAISMLYLDENEKVVLKNYQDMVVEGCGCR
notes: Bought; also called mBMP-2
B4: mPD-L2-hIgG (R&D) (Fc fusion, mouse, UniProt Q9WUL5 20-219, looked up)
chain: LFTVTAPKEVYTVDVGSSVSLECDFDRRECTELEGIRASLQKVENDTSLQSERATLLEEQLPLGKALFHIPSVQVRDSGQYRCLVICGAAWDYKYLTVKVKASYMRIDTRILEVPGTGEVQLTCQARGYPLAEVSWQNVSVPANTSHIRTPEGLYQVTSVLRLKPQPSRNFSCMFWNAHMKELTSAIIDPLSRMEPKVPR
notes: The text of the result says only 'PD-L2-Ig'; also called PD-L2-Ig; mPD-L2-Ig; not shown: human IgG part of the bought fusion protein

What was measured:
mPD-L2-hIgG (R&D) [1] = target: B4; experiment: ELISA, PD-L2-Ig added to BMP-4-coated plate without RGMb, anti-hIgG-HRP (FIG. 1E)
Text: (§1) FIG. 1 includes nine panels, identified as panels (A), (B), (C), (D), (E), (F), (G), (H), and (I), which show the blocking capacities of RGMb and PD-L2 mAbs and a model for RGMb, PD-L2, Neogenein, BMP, and BMP-receptor interactions. Panels A-C show the capacities of RGMb mAbs and PD-L2 mAbs to block RGMb binding to PD-L2 or to block PD-1 to PD-L2, as determined by cell conjugation assay. […] Binding of mRGMb-HIS was detected by anti-penta-HIS-HRP. […] Binding of Ig fusion proteins was detected with anti-hIgG-HRP. Similar results were also seen for BMP-2. […] Data shown in Panels 1A-1C and 1F-1H are representative of 2 or more independent experiments.
(§2) To determine if RGMb binds PD-L2 and BMP-2/4 simultaneously, 96-well ELISA plates were coated with BMP-2/4 as above. mPD-L2-hIgG1/IgA, mPD-L2-hIgG (R&D), mPD-L1-hIgG (R&D) or control-Ig fusion proteins at 10 µg/ml were preincubated with 10 μg/ml mRGMb-HIS (R&D) or buffer alone for 15 min. at room temperature (RT), then added to the plates and incubated for 1h at 37° C. Alternatively, 10 μg/ml mRGMb-HIS (R&D) or buffer alone was added first to the plates and incubated for 1h at 37° C. After wash, mPD-L2-Ig or control-Ig fusion proteins were added and incubated for 1 h at 37° C. Fab₂ goat anti-hIgG-HRP (Jackson ImmunoResearch Laboratories) at 1:10000 was used for detection.

[2] = target: T1, recombinant mRGMb-HIS (R&D); experiment: ELISA, BMP-4-coated plate, mRGMb-HIS plus PD-L2-Ig, anti-hIgG-HRP
Text: as §1, §2

[3] = target: T2, mouse RGMb on mRGMb transfected 300 …; experiment: cell conjugation assay / flow cytometry / ELISA of FIG. 1
mPD-L2-hIgG (R&D) [4] = target: B4; experiment: ELISA, PD-L2-Ig added to BMP-2-coated plate without RGMb, anti-hIgG-HRP
Method: as §2

[5] = target: T1, recombinant mRGMb-HIS (R&D); experiment: ELISA, BMP-2-coated plate, mRGMb-HIS plus PD-L2-Ig, anti-hIgG-HRP
Method: as §2

[6] = target: T1, recombinant mRGMb-HIS (R&D); experiment: ELISA, PD-L2-Ig captured through mRGMb-HIS on BMP-2/4-coated plate, anti-hIgG-HRP
Method: as §2

B1: no binding (mPD-L2-hIgG (R&D) [1]); binds [2].

B2: binds [3].

B3: no binding (mPD-L2-hIgG (R&D) [4]); binds [5].

B4: binds [6].
